B1: CD7: yeast CD gene optimized by human codon (SEQ. ID. NO: 22) (nucleic acid)
DNA: ATGGTAACTGGTGGCATGGCCTCAAAGTGGGATCAGAAAGGAATGGACATCGCTTACGAGGAGGCCGCACTGGGCTATAAGGAGGGCGGCGTCCCTATAGGCGGTTGCCTGATTAACAATAAAGACGGCTCAGTGCTGGGAAGGGGGCACAACATGAGATTTCAGAAAGGCAGCGCAACTCTGCACGGCGAAATCTCCACTCTGGAGAACTGCGGGCGGCTGGAGGGAAAGGTTTATAAAGATACTACCTTGTATACAACTCTGTCCCCCTGCGATATGTGCACCGGCGCCATCATAATGTACGGAATACCCAGGTGCGTGGTGGGAGAGAACGTGAATTTTAAGTCAAAAGGTGAGAAGTACCTGCAGACTCGCGGCCATGAGGTGGTTGTTGTTGACGATGAAAGGTGCAAGAAGATTATGAAGCAGTTCATTGATGAAAGACCCCAGGACTGGTTTGAGGATATCGGAGAGTAG
modifications: CD7 gene
B2: CD6: yeast CD gene optimized by human codon (SEQ. ID. NO: 21) (nucleic acid)
DNA: ATGGTTACTGGAGGGATGGCCAGTAAATGGGACCAGAAGGGTATGGATATTGCATACGAGGAGGCCGCTTTGGGATACAAGGAGGGGGGTGTCCCTATAGGCGGTTGCCTGATCAATAATAAAGACGGCTCTGTCTTGGGAAGAGGACACAATATGCGCTTTCAGAAGGGAAGCGCCACCCTGCATGGAGAGATCTCTACCCTCGAAAATTGCGGAAGGCTCGAAGGCAAAGTTTACAAAGATACCACCCTCTACACAACGCTGTCCCCCTGTGATATGTGCACCGGTGCCATTATCATGTATGGCATCCCACGCTGCGTTGTAGGAGAGAATGTAAACTTCAAATCCAAGGGAGAGAAGTATCTCCAGACCCGAGGGCACGAAGTTGTGGTGGTGGACGATGAAAGGTGTAAGAAGATCATGAAGCAGTTCATAGATGAGCGGCCTCAGGACTGGTTCGAGGATATTGGCGAATGA
modifications: CD6 gene
B3: CD4: CD gene where 32 sites showing recombination were all mutated (SEQ. ID. NO: 19) (nucleic acid)
DNA: ATGGTGACAGGGGGAATGGCAAGCAAGTGGGATCAGAAGGGTATGGACATTGCCTATGAGGAGGCGGCCTTAGGTTACAAAGAGGGTGGTGTTCCTATTGGCGGATGTCTTATCAATAACAAAGACGGAAGTGTTCTCGGTCGTGGTCACAACATGAGATTTCAAAAGGGATCCGCCACACTACATGGTGAGATCTCCACTTTGGAGAACTGCGGCAGGCTGGAAGGCAAGGTGTACAAAGATACCACTCTGTACACCACCCTGTCTCCATGCGACATGTGTACAGGTGCCATCATCATGTATGGTATTCCACGCTGTGTTGTCGGTGAGAACGTTAATTTCAAAAGTAAGGGCGAGAAATACTTGCAAACCAGGGGCCACGAGGTGGTGGTTGTTGACGATGAGAGGTGTAAAAAGATCATGAAACAATTTATCGATGAAAGACCTCAGGACTGGTTCGAGGACATCGGCGAGTAA
modifications: CD4 gene
B4: CD8: yeast CD gene optimized by human codon (SEQ. ID. NO: 23) (nucleic acid)
DNA: ATGGTTACTGGGGGAATGGCATCTAAGTGGGATCAGAAAGGTATGGACATCGCTTATGAAGAGGCTGCTCTCGGCTACAAAGAGGGTGGAGTGCCTATCGGAGGGTGCCTGATCAACAACAAGGACGGCAGTGTGCTGGGGAGGGGCCACAATATGAGGTTCCAAAAAGGCTCCGCCACTCTCCACGGGGAAATTAGTACCCTCGAGAATTGCGGACGATTGGAAGGGAAGGTGTACAAGGATACAACACTGTACACCACCCTGTCACCCTGTGATATGTGCACAGGCGCCATTATCATGTACGGAATCCCTAGATGTGTCGTGGGGGAGAATGTAAACTTCAAAAGTAAGGGGGAGAAATATCTCCAGACCCGGGGGCACGAAGTCGTCGTTGTGGACGATGAACGGTGTAAGAAGATCATGAAGCAGTTTATCGATGAGAGGCCCCAGGACTGGTTCGAAGACATCGGGGAATAA
modifications: CD8 gene
B5: yCD: yeast cytosine deaminase gene (SEQ. ID. NO: 16) (nucleic acid, listed as Saccharomyces cerevisiae)
DNA: ATGGTGACAGGGGGAATGGCAAGCAAGTGGGATCAGAAGGGTATGGACATTGCCTATGAGGAGGCGGCCTTAGGTTACAAAGAGGGTGGTGTTCCTATTGGCGGATGTCTTATCAATAACAAAGACGGAAGTGTTCTCGGTCGTGGTCACAACATGAGATTTCAAAAGGGATCCGCCACACTACATGGTGAGATCTCCACTTTGGAAAACTGTGGGAGATTAGAGGGCAAAGTGTACAAAGATACCACTTTGTATACGACGCTGTCTCCATGCGACATGTGTACAGGTGCCATCATCATGTATGGTATTCCACGCTGTGTTGTCGGTGAGAACGTTAATTTCAAAAGTAAGGGCGAGAAATATTTACAAACTAGAGGTCACGAGGTTGTTGTTGTTGACGATGAGA

Tested on: U-87MG cells
Assay: Investigation of drug sensitivity against GCV and 5-FC (cell death of serially infected cells)
Type: cell-based
Experimental: The drug sensitivity against ganciclovir (GCV) and 5-fluorocytosine (5-FC) of the virus spRRVe-P1-yCD/sRRVgp-P1-TK produced in Example <3-1> was investigated.
Overall, 293T cells were co-transfected with spRRVe-P1-yCD/sRRVgp-P1-TK by using PLUS reagent (Invitrogen) and lipofectamine (Invitrogen). 2 days later, the supernatant was obtained. The U-87MG cells sub-cultured on the previous day in a 6-well plate at the density of 1.5×10^3 cells/well were added with 8 μl/ml of polybrene, followed by infection with the virus for 8 hours. 5 days after the infection (post-infection 5 d), the supernatant was obtained. The U-87MG cells sub-cultured on the previous day in a 6-well plate at the density of 1.5×10^3 cells/well were infected with the supernatant (p1). The infection was continued serially until p4 phase. The cells of each phase were treated with trypsin-EDTA to prepare single cells. The prepared single cells were distributed in a 12-well plate at the density of 1.5×10^3 cells/well. From the next day of the sub-culture, the cells were treated with […] of GCV and 1 mM 5-FC for 5 days or 8 days, followed by investigation of cell death.
The drug sensitivity of the virus produced in Example <6-2> against GCV and 5-FC was investigated by the same manner as described in Example <3-5> except that the virus produced in Example <6-2> was co-transfected.
(§1) The drug sensitivity of the virus produced in Example <7-2> against GCV and 5-FC was investigated by the same manner as described in Example <3-5> except that the virus produced in Example <7-2> was co-transfected to infect stepwise from p1 to p9 and cell death was observed after treating GCV and 5-FC for 9 or 12 days, respectively.
as §1, with “<8-2>” for “<7-2>”, “p11” for “p9”, “5” for “9”, “7 days.” for “12 days, respectively.”
as §1, with “<10-2>” for “<7-2>”, “p5” for “p9”, “6” for “9”, “8” for “12”
as §1, with “Example <11-2>” for “Example <7-2>”, “for 8” for “for 9”, “days, respetively.” for “days, respectively.”

[1] = Example 8-3, combined with sRRVgp-P2-TK, p1 to p11, treated 5 or 7 days

Molecule	drug sensitivity against 5-FC [1]	other results
B1	excellent drug sensitivity, compared to yCD gene	
B2	excellent drug sensitivity, compared to yCD gene	drug sensitivity against GCV and 5-FC (Example 10-3, spRRVe-P2-CDs (CD6, CD10-CD16)/sRRVgp-P2-TK, p1 to p5, treated 6 or 8 days): most excellent drug sensitivity
B3		drug sensitivity against 5-FC (Example 6-3, spRRVe-P1-CDs/sRRVgp-P1-TK, p1-p4): weak drug sensitivity
B4	excellent drug sensitivity, compared to yCD gene	
B5		drug sensitivity against 5-FC (Example 3-5, 1 mM 5-FC for 5 days or 8 days, post-infection 5 d to p4): low drug sensitivity
